Measured values reported in patent publication US20160264650A1 (Regeneron, published 2016).
Where two headings read alike, the source gives them in different places.

How the values were obtained:
[1] = biological target: T1, Clostridium difficile toxin A, soluble full-length (TechLab) (Clostridium difficile, UniProt P16154 1-2710); test: SPR Biacore T200, 37C, mAb capture
T1 construct: also called tcdA

CBD-toxin A-Fc [2] = biological target: T2, CBD-toxin A-Fc (Clostridium difficile, UniProt P16154 1848-2710); test: SPR Biacore, mAb captured, 100 nM CBD-A-Fc flowed
T2 construct: also called CBD-A; C-term Toxin A

CBD-toxin A-Fc [3] = biological target: T2, CBD-toxin A-Fc; test: SPR Biacore, CBD-A-Fc captured, 500 nM mAb flowed
[4] = biological target: T1, Clostridium difficile toxin A, soluble …; test: cell-based or functional assay
[5] = biological target: T1, Clostridium difficile toxin A, soluble …; test: SPR Biacore T200, 37C, mAb capture; remark: listed apart in the source
[6] = biological target: T3, Clostridium difficile toxin B, soluble full-length (TechLab) (Clostridium difficile, UniProt P18177 2-2366); test: SPR Biacore T200, 37C, mAb capture
T3 construct: also called tcdB

[7] = biological target: T3, Clostridium difficile toxin B, soluble …; test: cell-based or functional assay
CBD-toxin B-Fc = biological target: T4, CBD-toxin B-Fc (Clostridium difficile, UniProt P18177 1851-2366); test: SPR Biacore, CBD-B-Fc captured, 500 nM mAb flowed
T4 construct: also called CBD-B; C-term Toxin B

B1: H1H3350P (antibody, V domains shown)
VH: QVQLVESGGGLVKPGGSLTLSCVASGFTFTDYYISWIRQAPGKGLEWISYIGTGGAAKYYADSVKGRFTVSRDNAKNSLYLLMNNLRAEDTAVYYCARDLGIFDLWGQGTLVTVSS
VL: EIVMTQSPATLSVSPGERATLSCRASQSVSSSLAWYHQKPGQAPRLLIHGVSTRATGIPARFSGTGSGTEFTLTISSLQSEDFAVYYCQQYHNWPPYTFGQGTKLEIKR
Kd [1]: 0.0101 nM
T½ [1]: 47.6 h
koff [1]: 4.05e-06 s⁻¹
kon [1]: 402000 M⁻¹ s⁻¹

B2: H1M3134N (antibody, V domains shown)
VH: QVQLVESGGDVVQPGRSLRLSCAASGFTFSGHGMHWVRQAPGKGLEWVALILYDGSSEDYTDSVKGRFTVSRDNSKNTLYLQMNSLRAEDTAVYYCARGSILNRPFDYWGQGTLVTVSS
VL: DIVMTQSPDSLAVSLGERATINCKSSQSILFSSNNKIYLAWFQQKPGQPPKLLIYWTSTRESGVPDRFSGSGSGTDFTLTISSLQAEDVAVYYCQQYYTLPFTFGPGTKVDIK
notes: also called HIM3134N
binding (RU) (CBD-toxin A-Fc [2]): -1 RU
binding (RU) (CBD-toxin A-Fc [3]): 195 RU
IC50, Vero cell viability (neutralization), Trial 4, 32 pM Toxin A [4]: 38 pM

B3: H1H3134N (antibody, V domains shown)
VH: QVQLVESGGDVVQPGRSLRLSCAASGFTFSGHGMHWVRQAPGKGLEWVALILYDGSSEDYTDSVKGRFTVSRDNSKNTLYLQMNSLRAEDTAVYYCARGSILNRPFDYWGQGTLVTVSS
VL: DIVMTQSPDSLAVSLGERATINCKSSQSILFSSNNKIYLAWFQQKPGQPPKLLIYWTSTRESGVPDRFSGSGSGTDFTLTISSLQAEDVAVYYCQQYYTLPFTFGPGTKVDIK
Kd [5]: 0.0278 nM
T½ [5]: 68.3 h
koff [5]: 2.82e-06 s⁻¹
kon [5]: 102000 M⁻¹ s⁻¹

B4: H1H3394P (antibody, V domains shown)
VH: QVQLVQSGAEVQKPGASVKVSCKASGYTFTDYYIHWVRQAPGQGLEWMGWINPKTGGTNYAPKFQGRVTMTRDSSIITAYMDLTRLTSDDTAVFYCARRGYNSRWSVFDYWGQGTLVTVSS
VL: EIVLTQSPGTLSLSPGERATLSCRASQSVYSNYLAWYQQKRGLAPRLLIYGASSRATGIPDRFSGSGSGTDFTLTISRLEPEDFAVYYCQQHGGSPVTFGGGTKVEIKR
Kd [6]: 0.333 nM
T½ [6]: 1.2 h
koff [6]: 0.000162 s⁻¹
kon [6]: 486000 M⁻¹ s⁻¹

B5: H2aM3067N (antibody, V domains shown)
VH: QIQLVESGGGVVQPGRSLRLSCVASGFTLSGHGMHWVRQAPGKGLEWVAFISFDGGHQDYTDAAEGRFTISRDNSKNTLYLEMVSLRPADTAIYYCVKGSDSSRGFGYWGRGILVTVSS
VL: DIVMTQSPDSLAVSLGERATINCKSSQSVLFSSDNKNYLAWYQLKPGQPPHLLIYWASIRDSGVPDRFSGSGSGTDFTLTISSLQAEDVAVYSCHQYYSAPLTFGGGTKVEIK
notes: also called H2M3067N; H1M3067N
binding (RU) (CBD-toxin A-Fc [2]): -2 RU
binding (RU) (CBD-toxin A-Fc [3]): 237 RU
IC50, Vero cell viability (neutralization), Trial 1, 32 pM Toxin A [4]: 64 pM
IC50, Vero cell viability (neutralization), Trial 2, 32 pM Toxin A [4]: 44 pM

B6: H1H3067N (antibody, V domains shown)
VH: QIQLVESGGGVVQPGRSLRLSCVASGFTLSGHGMHWVRQAPGKGLEWVAFISFDGGHQDYTDAAEGRFTISRDNSKNTLYLEMVSLRPADTAIYYCVKGSDSSRGFGYWGRGILVTVSS
VL: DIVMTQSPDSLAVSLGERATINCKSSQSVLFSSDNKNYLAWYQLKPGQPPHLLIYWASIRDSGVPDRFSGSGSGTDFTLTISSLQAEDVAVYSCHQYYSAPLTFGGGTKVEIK
Kd [5]: 0.24 nM
T½ [5]: 5.58 h
koff [5]: 3.45e-05 s⁻¹
kon [5]: 144000 M⁻¹ s⁻¹

B7: H1M3117N (antibody, V domains shown)
VH: EVQLLESGGGLAQPGGSLRLSCAASGFNFGTHDMSWVRQAPGKGLEWVSGLTSTGGSASSADSVKGRFTISRDNSKNILYLQMNSLRAEDTAVYYCAKTFNWNSYFDYWGQGTLVTVSS
VL: EIVLTQSPGTLSLSPGERATLSCRASQSISTYYLAWYQQKPDQPPRLLIYGTSSRATGIPDRFSGSGSGTDFTLTISRLDPEDFAVYYCQQYGNSLYTFGQGTKLEIK
binding (RU) (CBD-toxin A-Fc [2]): -3 RU
binding (RU) (CBD-toxin A-Fc [3]): 350 RU
IC50, Vero cell viability (neutralization), Trial 1, 32 pM Toxin A [4]: 29 pM
IC50, Vero cell viability (neutralization), Trial 2, 32 pM Toxin A [4]: 11 pM

B8: H1H3117N (antibody, V domains shown)
VH: EVQLLESGGGLAQPGGSLRLSCAASGFNFGTHDMSWVRQAPGKGLEWVSGLTSTGGSASSADSVKGRFTISRDNSKNILYLQMNSLRAEDTAVYYCAKTFNWNSYFDYWGQGTLVTVSS
VL: EIVLTQSPGTLSLSPGERATLSCRASQSISTYYLAWYQQKPDQPPRLLIYGTSSRATGIPDRFSGSGSGTDFTLTISRLDPEDFAVYYCQQYGNSLYTFGQGTKLEIK
Kd [1]: 0.0793 nM
T½ [1]: 5.53 h
koff [1]: 3.84e-05 s⁻¹
kon [1]: 438000 M⁻¹ s⁻¹

B9: Control I (anti-toxin A antibody with the variable domains of the "3D8" antibody of U.S. Pat. No. 7,625,559 and US2005/0287150) (antibody, human IgG1, kappa, V domains shown)
VH: QVQLVESGGGVVQPGRSLRLSCAASGFSFSNYGMHWVRQAPGKGLEWVALIWYDGSNEDYTDSVKGRFTISRDNSKNTLYLQMNSLRAEDTAVYYCARWGMVRGVIDVFDIWGQGTVVTVSS
VL: DIQMTQSPSSVSASVGDRVTITCRASQGISSWLAWYQHKPGKAPKLLIYAASSLQSGVPSRFSGSGSGTDFTLTISSLQPEDFATYYCQQANSFPWTFGQGTKVEIKR
notes: also called control 1; Control Antibody I
Kd [1]: 0.0859 nM
T½ [1]: 0.967 h
koff [1]: 3.24e-05 s⁻¹
kon [1]: 377000 M⁻¹ s⁻¹
IC50, Vero cell viability (neutralization), Trial 5, 25 pM Toxin A [4]: 199 pM

B10: H1H3411P (antibody, V domains shown)
VH: EVQLVESGGGLVQPGGSLRLSCAASGFTFSRYGMNWVRQAPGKGLEWVSAISGSGGSTYHADSVKGRFTISRDNSKNTLYLQMNSLRAADTAIYFCASYNWNDGVDVWGQGTTVTVS
VL: DIQMTQSPSSVSASIGDRVTITCRASQGISNWLAWYQQKPGKAPKLLIYGASSLQSGVSSRFSGSGSGTDFTLTIISLQPEDFATYYCQQANSFPYTFGQGTKLEIKR
IC50, Vero cell viability (neutralization), Trial 2, 0.1 pM Toxin B; antibody only partially protects (40-50%) at highest concentration [7]: 8 pM
Kd [6]: 0.677 nM
T½ [6]: 1.22 h
koff [6]: 0.000159 s⁻¹
kon [6]: 235000 M⁻¹ s⁻¹

B11: H1H3401P (antibody, V domains shown)
VH: QVQLVESGGGVVQPGRSLRLSCEASGFTFSSYGMHWVRQAPGNGLEWIAVISSDGNNKYYIESVKGRFTMSRDNSKNTLYLQLNSLRTEDTAVYYCATYNWNDDGDGVFDYWGQGTLVTVSS
VL: DIQMTQSPSSVSASVGDRVTITCRASQGISNWLAWYQQKPGKAPKLLIYGTSSLQSGVPSRFSGSGSGTDFTLTISSLQPEDFATYYCQQVKSFPYTFGQGTKLEIKR
Kd [6]: 0.574 nM
T½ [6]: 0.8 h
koff [6]: 0.000241 s⁻¹
kon [6]: 420000 M⁻¹ s⁻¹

B12: H1H3355P (antibody, V domains shown)
VH: EVQLVESGGGLVQPGRSLRLSCTASGFVFEDYAMHWVRQAPGKGLEWVSGISWNSGRIGYTDSVKGRFTVSRDNAKNSLYLQMNSLTTEDTALYYCAKDKSPSKWNLLGMDVWGQGTTVTVSS
VL: AIQMTQSPSSLSASVGDRVTITCRASQDIRNDLGWFQQKPGRAPNLLIFGASSLQSGVPSRFSGSGSGTDFTLTISGLQPEDFSTYYCLQDYTYPFTFGPGTKVDIKR
binding result [6]: no binding (tested: toxin at 5 to 10 nM)

B13: H1H3324P (antibody, V domains shown)
VH: EVQLVESGGGLVQPGGSLRLSCAASGFTFSSYDMHWVRQVIGKGLEWVSAIGTVGDTYYAGSVKGRFTISRENAKNSLYLQMNSLRAGDTAVYYCARDRGGANIYSFYYGMDVWGQGTTVTVSS
VL: DIQMTQSPSSLSVSVGDRVTITCRASQDISNYLAWYQQKPGKVPKLLIYAASTLQSGVPSRFSGSGSGTDFTLTISSLQPEDVATYFCQKYNSAPFTFGPGTKVDIKR
binding (RU) (CBD-toxin A-Fc [2]): 269 RU
binding (RU) (CBD-toxin A-Fc [3]): 224 RU
Kd [1]: 0.0139 nM
T½ [1]: 54.9 h
koff [1]: 3.5e-06 s⁻¹
kon [1]: 251000 M⁻¹ s⁻¹
IC50, Vero cell viability (neutralization), Trial 4, 32 pM Toxin A [4]: 33 pM
binding (RU) (CBD-toxin B-Fc): -8 RU

B14: H1H3328P (antibody, V domains shown)
VH: EVQLVESGGGLVQPGGSLTLSCAASRFTFSNYDMHWVRQATGKGLEWVSAIGTVGDTYYAGSVKGRFTISRDDAKNSLYLQMNSLRAGDTAVYYCARDRGGAGTYSFYYGMDVWGQGTTVTVSS
VL: DIQMTQSPSSLSASVGDRVTITCRASQDISNYLAWYQQKPGKVPKLLIYAASTLQSGVPSRFSGSGSGTDFTLTVSSLQPEDVATYYCQKYTSAPFTFGPGTKVDIKR
binding (RU) (CBD-toxin A-Fc [2]): 354 RU
binding (RU) (CBD-toxin A-Fc [3]): 227 RU
Kd [1]: 0.0957 nM
T½ [1]: 5.27 h
koff [1]: 3.66e-05 s⁻¹
kon [1]: 382000 M⁻¹ s⁻¹
IC50, Vero cell viability (neutralization), Trial 3, 32 pM Toxin A [4]: 112 pM
binding (RU) (CBD-toxin B-Fc): -6 RU
